This note sets out measurements from IntAct's records for PubMed 20952388.

B1: Ethylene receptor 1 (Arabidopsis thaliana (Mouse-ear cress)), P49333 (parent)
chain: MEVCNCIEPQWPADELLMKYQYISDFFIAIAYFSIPLELIYFVKKSAVFPYRWVLVQFGAFIVLCGATHLINLWTFTTHSRTVALVMTTAKVLTAVVSCATALMLVHIIPDLLSVKTRELFLKNKAAELDREMGLIRTQEETGRHVRMLTHEIRSTLDRHTILKTTLVELGRTLALEECALWMPTRTGLELQLSYTLRHQHPVEYTVPIQLPVINQVFGTSRAVKISPNSPVARLRPVSGKYMLGEVVAVRVPLLHLSNFQINDWPELSTKRYALMVLMLPSDSARQWHVHELELVEVVADQVAVALSHAAILEESMRARDLLMEQNVALDLARREAETAIRARNDFLAVMNHEMRTPMHAIIALSSLLQETELTPEQRLMVETILKSSNLLATLMNDVLDLSRLEDGSLQLELGTFNLHTLFREVLNLIKPIAVVKKLPITLNLAPDLPEFVVGDEKRLMQIILNIVGNAVKFSKQGSISVTALVTKSDTRAADFFVVPTGSHFYLRVKVKDSGAGINPQDIPKIFTKFAQTQSLATRSSGGSGLGLAISKRFVNLMEGNIWIESDGLGKGCTAIFDVKLGISERSNESKQSGIPKVPAIPRHSNFTGLKVLVMDENGVSRMVTKGLLVHLGCEVTTVSSNEECLRVVSHEHKVVFMDVCMPGVENYQIALRIHEKFTKQRHQRPLLVALSGNTDKSTKEKCMSFGLDGVLLKPVSLDNIRDVLSDLLEPRVLYEGM
partner: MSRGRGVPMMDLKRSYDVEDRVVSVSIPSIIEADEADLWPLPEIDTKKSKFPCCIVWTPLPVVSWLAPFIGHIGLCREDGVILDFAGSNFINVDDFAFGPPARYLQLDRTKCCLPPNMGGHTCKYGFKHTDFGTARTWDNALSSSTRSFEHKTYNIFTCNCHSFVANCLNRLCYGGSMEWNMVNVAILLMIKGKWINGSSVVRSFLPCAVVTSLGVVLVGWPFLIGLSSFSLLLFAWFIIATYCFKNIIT

The assay covers variants of B1. The note with it: with rte1_arath RTE1, F4ITL6.
Regarding A102T, the “effect of a mutation on the interaction” value is “decreasing interaction”.
For the variant C65W, the “effect of a mutation on the interaction” value is “decreasing interaction”.
